Data taken from US7070969 (UNIVERSITY OF QUEENSLAND, dated 2006).
Where a chain is given by its changes, count along the chain named.

B1: Textilinin 1 (other)
chain: KDRPDFCELPADTGPCRVRFPSFYYNPDEKKCLEFIYGGCEGNANNFITKEECESTCAA
notes: also called Txln 1
B2: Textilinin 2 (other)
chain: B1 chain with D5E, F6L, A11P, K30Q
notes: also called Txln 2

Assays:
Human plasmin [1] = biological target: T1, Human plasmin (human, UniProt P00747 97-810); assay: progress curves of S-2251 hydrolysis, 18 nM plasmin, n = 6, global fit to Eq. 1-3
T1 construct: mature

Human plasmin [2] = biological target: T1, Human plasmin; assay: comparison of Table 3 Ki values; reference aprotinin (Willmott et al., 1995)
Human plasmin [3] = biological target: T1, Human plasmin; assay: progress curves of S-2251 hydrolysis, 2 nM plasmin, n = 6, global fit to Eq. 1-3
Human plasmin [4] = biological target: T1, Human plasmin; assay: plasmin inhibition kinetics (kinetic profile)

T1 sequence (P00747 97-810): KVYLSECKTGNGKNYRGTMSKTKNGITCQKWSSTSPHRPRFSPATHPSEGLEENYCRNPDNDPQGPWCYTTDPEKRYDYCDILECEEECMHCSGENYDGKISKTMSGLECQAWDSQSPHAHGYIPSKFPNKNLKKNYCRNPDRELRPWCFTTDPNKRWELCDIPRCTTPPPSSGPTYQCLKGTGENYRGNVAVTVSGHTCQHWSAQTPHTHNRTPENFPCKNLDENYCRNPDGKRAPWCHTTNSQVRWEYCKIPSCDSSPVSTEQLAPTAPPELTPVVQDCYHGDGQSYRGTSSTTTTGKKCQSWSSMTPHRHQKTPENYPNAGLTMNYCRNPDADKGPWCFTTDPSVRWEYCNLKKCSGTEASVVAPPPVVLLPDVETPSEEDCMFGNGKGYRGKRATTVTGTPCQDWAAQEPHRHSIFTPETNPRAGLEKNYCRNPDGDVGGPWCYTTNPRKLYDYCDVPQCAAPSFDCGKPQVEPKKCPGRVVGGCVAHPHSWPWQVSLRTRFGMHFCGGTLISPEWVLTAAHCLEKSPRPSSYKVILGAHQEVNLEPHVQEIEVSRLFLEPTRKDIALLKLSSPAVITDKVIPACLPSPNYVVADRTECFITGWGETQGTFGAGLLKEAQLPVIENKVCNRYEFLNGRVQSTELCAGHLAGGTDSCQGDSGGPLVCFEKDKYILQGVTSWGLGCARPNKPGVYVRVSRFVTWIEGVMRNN

| Binder | Ki (Human plasmin [1]) [nM] | fold difference of Ki against aprotinin (Human plasmin [2]) [fold] | Ki (Human plasmin [3]) [nM] | Ki (Human plasmin [4]) [nM] |
| --- | --- | --- | --- | --- |
| B1 | 2.6 | ~100 | 3.5 | – |
| B2 | 2.8 | ~100 | 2.2 | 2 |
